The record followed here is patent US20220016257A1 (Daiichi Sankyo, published 2022).

Residue numbers refer to the chain shown, from its start.

Sequences and labels used below:
T1: human CDH6 (full-length, on cells) (human, UniProt P55285 54-790)
T1 construct: also called hCDH6; full-length hCDH6
T1 sequence: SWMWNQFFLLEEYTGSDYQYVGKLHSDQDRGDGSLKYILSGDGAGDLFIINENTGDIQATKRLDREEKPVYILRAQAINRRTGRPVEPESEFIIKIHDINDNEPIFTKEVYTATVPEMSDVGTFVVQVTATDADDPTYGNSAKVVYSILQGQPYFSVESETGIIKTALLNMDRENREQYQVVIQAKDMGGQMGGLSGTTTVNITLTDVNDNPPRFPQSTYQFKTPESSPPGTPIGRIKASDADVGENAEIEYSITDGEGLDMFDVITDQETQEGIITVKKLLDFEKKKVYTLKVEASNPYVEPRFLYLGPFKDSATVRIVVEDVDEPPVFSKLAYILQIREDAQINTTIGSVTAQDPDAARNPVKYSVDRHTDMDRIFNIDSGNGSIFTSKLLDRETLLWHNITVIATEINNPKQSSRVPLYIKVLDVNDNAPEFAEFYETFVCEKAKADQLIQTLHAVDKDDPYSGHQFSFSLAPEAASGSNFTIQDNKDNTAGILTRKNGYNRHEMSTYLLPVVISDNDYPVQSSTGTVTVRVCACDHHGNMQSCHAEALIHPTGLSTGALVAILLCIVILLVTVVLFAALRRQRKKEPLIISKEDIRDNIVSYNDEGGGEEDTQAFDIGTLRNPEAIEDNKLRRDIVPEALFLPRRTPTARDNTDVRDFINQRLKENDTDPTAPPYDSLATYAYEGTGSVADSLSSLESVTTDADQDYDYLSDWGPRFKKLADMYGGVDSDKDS

T2: EC3-deleted human CDH6 (EC3 deletion mutant, on cells) (human, UniProt P55285 54-790)
T2 construct: Full-length human CDH6 lacking EC3; Cloned in p3xFLAG-CMV-9; also called EC3-deleted hCDH6
T2 sequence: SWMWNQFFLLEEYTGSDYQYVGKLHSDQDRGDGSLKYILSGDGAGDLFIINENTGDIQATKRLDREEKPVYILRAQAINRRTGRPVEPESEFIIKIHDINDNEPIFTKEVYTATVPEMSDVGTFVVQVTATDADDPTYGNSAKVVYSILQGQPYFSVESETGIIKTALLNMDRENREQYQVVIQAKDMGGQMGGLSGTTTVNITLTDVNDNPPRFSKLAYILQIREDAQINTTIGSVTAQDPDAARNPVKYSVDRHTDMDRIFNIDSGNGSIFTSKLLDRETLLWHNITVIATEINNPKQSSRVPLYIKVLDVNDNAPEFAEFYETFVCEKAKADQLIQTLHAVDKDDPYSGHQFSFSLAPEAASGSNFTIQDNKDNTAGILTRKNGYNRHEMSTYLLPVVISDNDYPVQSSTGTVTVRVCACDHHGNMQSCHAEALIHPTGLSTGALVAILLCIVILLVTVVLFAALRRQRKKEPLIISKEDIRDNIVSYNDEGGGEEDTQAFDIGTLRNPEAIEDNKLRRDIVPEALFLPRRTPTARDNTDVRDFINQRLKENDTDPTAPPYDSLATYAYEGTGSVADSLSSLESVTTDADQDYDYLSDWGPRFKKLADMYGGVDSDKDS

B1: humanized anti-CDH6 antibody H02L02 (antibody, human IgG1, kappa, V domains shown)
VH: EVQLVQSGAEVKKPGASVKVSCKASGYTFTRNFMHWVRQAPGQGLEWMGWIYPGDGETEYNQKFQGRVTITADRSTSTAYMELSSLRSEDTAVYFCARGVYGGFAGGYFDFWGQGTLVTVSS
VL: DIQMTQSPSSLSASVGDRVTITCKASQNIYKNLAWYQQKPGKAPKLLIYDANTLQTGVPSRFSGSGSGSDFTLTISSLQPEDFATYFCQQYYSGWAFGQGTKVEIKR
notes: hH02 heavy chain and hL02 light chain, human IgG1/kappa; also called H02L02 antibody; humanized hG019
B2: humanized anti-CDH6 antibody H01L02 (antibody, human IgG1, kappa)
heavy: not shown
light: DIQMTQSPSSLSASVGDRVTITCKASQNIYKNLAWYQQKPGKAPKLLIYDANTLQTGVPSRFSGSGSGSDFTLTISSLQPEDFATYFCQQYYSGWAFGQGTKVEIKRTVAAPSVFIFPPSDEQLKSGTASVVCLLNNFYPREAKVQWKVDNALQSGNSQESVTEQDSKDSTYSLSSTLTLSKADYEKHKVYACEVTHQGLSSPVTKSFNRGEC
notes: hH01 heavy chain and hL02 light chain, human IgG1/kappa; also called H01L02 antibody; humanized hG019
B3: humanized anti-CDH6 antibody H02L03 (antibody, human IgG1, kappa, V domains shown)
VH: B1 VH
VL: B1 VL with P40L, K42E, A43G, S69T, F87Y
notes: hH02 heavy chain and hL03 light chain, human IgG1/kappa; also called H02L03 antibody; humanized hG019
B4: humanized anti-CDH6 antibody H04L02 (antibody, human IgG1, kappa, V domains shown)
VH: B1 VH with E1Q, V37I, N61A, I70L, F95Y
VL: B1 VL
notes: hH04 heavy chain and hL02 light chain, human IgG1/kappa; also called H04L02 antibody; humanized hG019

The target of one test is T1, human CDH6 (full-length, on cells). Briefly: competition flow cytometry on 786-O/hCDH6 cells, unlabeled antibody varied, competitor Alexa488-labeled H01L02 at 5 nM [lower panel]. On the procedure: The cell suspension of the 786-O/hCDH6 stably expressing cell line produced in 6)-2-2-1 was centrifuged, and the supernatant was then removed. Thereafter, the cells were suspended by the addition of labeled NOV0712 or labeled H01L02 (final concentration: 5 nM) and, further, the addition of each of the 4 humanized hG019 antibodies (clone Nos: H01L02, H02L02, H02L03 and H04L02), which had been prepared in Example 5)-5-3, or the anti-CDH6 antibody NOV0712, which had been prepared in Reference Example 1, or human IgG1 (Calbiochem) as a negative control (final concentration: as shown in the abscissa of FIG. 7). The cells were left standing at 4° C. for 1 hour. Thereafter, the cells were washed twice with PBS supplemented with 5% FBS, followed by detection using a flow cytometer (Canto II; BD Biosciences). The data was analyzed using FlowJo (TreeStar, Inc.). The abscissa depicts the final concentration of the added unlabeled antibody, and the ordinate depicts the amount of the antibody bound based on mean fluorescence intensity. When unlabeled NOV0712 is added to cells supplemented with labeled NOV0712, the amount of the labeled antibody bound is decreased by replacement with the unlabeled antibody in an addition concentration-dependent manner because they compete with each other for binding to the same epitope. […] Likewise, when each of the 4 unlabeled humanized hG019 antibodies is added to cells supplemented with labeled H01L02, the amount of the labeled antibody bound is decreased by replacement with the unlabeled antibody in an addition concentration-dependent manner because they compete with each other for binding to the same epitope.
A general note: Flow cytometry measures light scatter and fluorescence of single cells or particles in a stream.
On to B1, for which the “IC50 (read off the curve)” value is about 3 nM.
Take B2: the “IC50 (read off the curve)” value was about 5 nM.
Still for that read-out and setting: in the case of B3 it was about 10 nM; in that of B4, about 10 nM.

A further test addresses T2, EC3-deleted human CDH6 (EC3 deletion …). In words: flow cytometry, 293α cells transiently expressing EC3-deleted hCDH6 (open) against untransfected cells (shaded), APC anti-human IgG F(ab')2. On the procedure: The cells were cultured overnight under conditions of 37° C. and 5% CO₂, and thereafter, a cell suspension was prepared. […] Thereafter, the cells were suspended by the addition of each of the 4 humanized hG019 antibodies (clone Nos: H01L02, H02L02, H02L03 and H04L02), which had been prepared in Example 5)-5-3, or the anti-CDH6 antibody NOV0712, which had been prepared in Reference Example 1, or human IgG1 (Calbiochem) as a negative control. The cells were left standing at 4° C. for 1 hour. The cells were washed twice with PBS supplemented with 5% FBS, and then suspended by the addition of APC-anti-human IgG goat F(ab′)2 (Jackson ImmunoResearch Laboratories, Inc.) that had been 500-fold diluted with PBS supplemented with 5% FBS. The cells were left standing at 4° C. for 1 hour. The cells were washed twice with PBS supplemented with 5% FBS, followed by detection using a flow cytometer (Canto II; BD Biosciences). The data was analyzed using FlowJo (TreeStar, Inc.). In the histograms of FIGS. 5-1 to 5-6, the abscissa depicts APC fluorescence intensity indicating the amount of the antibody bound, and the ordinate depicts cell count. […] Fluorescence intensity is enhanced when the antibody binds to full-length hCDH6 or each EC domain deletion mutant on the cell surface. The human IgG1 control binds to none of the transfected cells.
For B1, the binding result is reported as “no binding (tested: not given)”.
With B2, the binding result is “no binding (tested: not given)”.
Consider B3, for which the binding result is on record as “no binding (tested: not given)”.
For B4, the binding result is listed as “no binding (tested: not given)”.
